# From IntAct's records for PubMed 31515488
# B1: Trichoplein keratin filament-binding protein (Homo sapiens), Q9BT92 (parent)
# chain: MALPTLPSYWCSQQRLNQQLARQREQEARLRQQWEQNSRYFRMSDICSSKQAEWSSKTSYQRSMHAYQREKMKEEKRRSLEARREKLRQLMQEEQDLLARELEELRLSMNLQERRIREQHGKLKSAKEEQRKLIAEQLLYEHWKKNNPKLREMELDLHQKHVVNSWEMQKEEKKQQEATAEQENKRYENEYERARREALERMKAEEERRQLEDKLQAEALLQQMEELKLKEVEATKLKKEQENLLKQRWELERLEEERKQMEAFRQKAELGRFLRHQYNAQLSRRTQQIQEELEADRRILQALLEKEDESQRLHLARREQVMADVAWMKQAIEEQLQLERAREAELQMLLREEAKEMWEKREAEWARERSARDRLMSEVLTGRQQQIQEKIEQNRRAQEESLKHREQLIRNLEEVRELARREKEESEKLKSARKQELEAQVAERRLQAWEADQQEEEEEEEARRVEQLSDALLQQEAETMAEQGYRPKPYGHPKIAWN
# B2: Protein LDOC1 (Homo sapiens), O95751 (parent)
# chain: MVDELVLLLHALLMRHRALSIENSQLMEQLRLLVCERASLLRQVRPPSCPVPFPETFNGESSRLPEFIVQTASYMLVNENRFCNDAMKVAFLISLLTGEAEEWVVPYIEMDSPILGDYRAFLDEMKQCFGWDDDEDDDDEEEEDDY
# partner: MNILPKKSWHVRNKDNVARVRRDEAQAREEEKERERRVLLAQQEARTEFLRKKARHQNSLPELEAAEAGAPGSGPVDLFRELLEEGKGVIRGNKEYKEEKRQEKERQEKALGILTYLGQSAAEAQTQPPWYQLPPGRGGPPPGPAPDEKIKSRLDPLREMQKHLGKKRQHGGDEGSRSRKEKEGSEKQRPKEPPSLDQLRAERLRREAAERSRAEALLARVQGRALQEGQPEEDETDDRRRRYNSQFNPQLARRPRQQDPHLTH
# B3: Tuftelin-interacting protein 11 (Homo sapiens), Q9UBB9 (parent)
# chain: MSLSHLYRDGEGRIDDDDDERENFEITDWDLQNEFNPNRQRHWQTKEEATYGVWAERDSDDERPSFGGKRARDYSAPVNFISAGLKKGAAEEAELEDSDDEEKPVKQDDFPKDFGPRKLKTGGNFKPSQKGFAGGTKSFMDFGSWERHTKGIGQKLLQKMGYVPGRGLGKNAQGIINPIEAKQRKGKGAVGAYGSERTTQSMQDFPVVDSEEEAEEEFQKELSQWRKDPSGSKKKPKYSYKTVEELKAKGRISKKLTAPQKELSQVKVIDMTGREQKVYYSYSQISHKHNVPDDGLPLQSQQLPQSGKEAKAPGFALPELEHNLQLLIDLTEQEIIQNDRQLQYERDMVVNLFHELEKMTEVLDHEERVISNLSKVLEMVEECERRMQPDCSNPLTLDECARIFETLQDKYYEEYRMSDRVDLAVAIVYPLMKEYFKEWDPLKDCTYGTEIISKWKSLLENDQLLSHGGQDLSADAFHRLIWEVWMPFVRNIVTQWQPRNCDPMVDFLDSWVHIIPVWILDNILDQLIFPKLQKEVENWNPLTDTVPIHSWIHPWLPLMQARLEPLYSPIRSKLSSALQKWHPSDSSAKLILQPWKDVFTPGSWEAFMVKNIVPKLGMCLGELVINPHQQHMDAFYWVIDWEGMISVSSLVGLLEKHFFPKWLQVLCSWLSNSPNYEEITKWYLGWKSMFSDQVLAHPSVKDKFNEALDIMNRAVSSNVGAYMQPGARENIAYLTHTERRKDFQYEAMQERREAENMAQRGIGVAASSVPMNFKDLIETKAEEHNIVFMPVIGKRHEGKQLYTFGRIVIYIDRGVVFVQGEKTWVPTSLQSLIDMAK
# partner: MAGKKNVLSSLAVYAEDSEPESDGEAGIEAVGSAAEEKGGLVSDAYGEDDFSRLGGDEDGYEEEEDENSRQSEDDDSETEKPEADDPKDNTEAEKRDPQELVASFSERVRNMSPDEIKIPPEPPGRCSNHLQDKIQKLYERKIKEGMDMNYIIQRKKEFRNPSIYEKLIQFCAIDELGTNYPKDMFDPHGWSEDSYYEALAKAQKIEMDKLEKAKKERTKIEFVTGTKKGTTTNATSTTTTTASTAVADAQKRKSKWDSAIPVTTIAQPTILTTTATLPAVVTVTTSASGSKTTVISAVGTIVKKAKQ
# B4: Kinetochore protein NDC80 homolog (Homo sapiens), O14777 (parent)
# chain: MKRSSVSSGGAGRLSMQELRSQDVNKQGLYTPQTKEKPTFGKLSINKPTSERKVSLFGKRTSGHGSRNSQLGIFSSSEKIKDPRPLNDKAFIQQCIRQLCEFLTENGYAHNVSMKSLQAPSVKDFLKIFTFLYGFLCPSYELPDTKFEEEVPRIFKDLGYPFALSKSSMYTVGAPHTWPHIVAALVWLIDCIKIHTAMKESSPLFDDGQPWGEETEDGIMHNKLFLDYTIKCYESFMSGADSFDEMNAELQSKLKDLFNVDAFKLESLEAKNRALNEQIARLEQEREKEPNRLESLRKLKASLQGDVQKYQAYMSNLESHSAILDQKLNGLNEEIARVELECETIKQENTRLQNIIDNQKYSVADIERINHERNELQQTINKLTKDLEAEQQKLWNEELKYARGKEAIETQLAEYHKLARKLKLIPKGAENSKGYDFEIKFNPEAGANCLVKYRAQVYVPLKELLNETEEEINKALNKKMGLEDTLEQLNAMITESKRSVRTLKEEVQKLDDLYQQKIKEAEEEDEKCASELESLEKHKHLLESTVNQGLSEAMNELDAVQREYQLVVQTTTEERRKVGNNLQRLLEMVATHVGSVEKHLEEQIAKVDREYEECMSEDLSENIKEIRDKYEKKATLIKSSEE
# Variants of: B1
# Settings: with KRT15, P19012
# Sequence of KRT15, P19012 (P19012 whole entry): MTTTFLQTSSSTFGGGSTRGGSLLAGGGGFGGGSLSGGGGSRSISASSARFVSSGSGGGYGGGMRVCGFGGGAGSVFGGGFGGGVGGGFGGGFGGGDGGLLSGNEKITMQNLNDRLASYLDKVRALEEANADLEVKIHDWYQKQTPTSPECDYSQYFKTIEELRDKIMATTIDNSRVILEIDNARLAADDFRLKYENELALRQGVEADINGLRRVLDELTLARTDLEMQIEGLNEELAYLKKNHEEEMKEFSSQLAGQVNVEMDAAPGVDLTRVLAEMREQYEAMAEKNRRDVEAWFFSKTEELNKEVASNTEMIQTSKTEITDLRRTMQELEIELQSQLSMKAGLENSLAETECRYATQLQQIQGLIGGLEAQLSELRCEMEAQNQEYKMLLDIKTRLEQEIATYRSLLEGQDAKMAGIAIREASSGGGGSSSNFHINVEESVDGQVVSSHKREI
row,Variant,effect of a mutation on the interaction
1,MALPTLPSYWCSQQRLNQQLARQREQEARLRQQWEQNSRYFRMSDICSSKQAEWSSKTSYQRSMHAYQREKMKEEKRRSLEARREKLRQLMQEEQDLLARELEELRLSMNLQERRIREQHGKLKSAREEQRKLIAEQLLYEHWKKNNPKLREMELDLHQKHVVNSWEMQKEEKKQQEATAEQENKRYENEYERARREALERMKAEEERRQLEDKLQAEALLQQMEELKLKEVEATKLKKEQENLLKQRWELERLEEERKQMEAFRQKAELGRFLRHQYNAQLSRRTQQIQEELEADRRILQALLEKEDESQRLHLARREQVMADVAWMKQAIEEQLQLERAREAELQMLLREEAKEMWEKREAEWARERSARDRLMSEVLTGRQQQIQEKIEQNRRAQEESLKHREQLIRNLEEVRELARREKEESEKLKSARKQELEAQVAERRLQAWEADQQEEEEEEEARRVEQLSDALLQQEAETMAEQGYRPKPYGHPKIAWN [K127R],with no effect

# Variants of: B1
# Settings: with cdr2_human CDR2, Q01850
# Sequence of cdr2_human CDR2, Q01850 (Q01850 whole entry): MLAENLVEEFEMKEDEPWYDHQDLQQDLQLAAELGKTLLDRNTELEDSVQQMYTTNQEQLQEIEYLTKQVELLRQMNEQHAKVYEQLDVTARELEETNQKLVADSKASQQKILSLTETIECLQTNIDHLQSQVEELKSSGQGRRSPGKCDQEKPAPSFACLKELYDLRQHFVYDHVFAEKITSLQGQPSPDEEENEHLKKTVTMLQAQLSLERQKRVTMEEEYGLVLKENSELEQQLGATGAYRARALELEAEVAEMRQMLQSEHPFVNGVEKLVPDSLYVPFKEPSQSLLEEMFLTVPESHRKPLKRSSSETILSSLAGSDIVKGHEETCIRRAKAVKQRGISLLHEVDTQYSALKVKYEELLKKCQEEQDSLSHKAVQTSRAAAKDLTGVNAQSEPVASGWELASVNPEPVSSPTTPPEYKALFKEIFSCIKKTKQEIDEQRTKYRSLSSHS
row,Variant,effect of a mutation on the interaction
1,MALPTLPSYWCSQQRLNQQLARQREQEARLRQQWEQNSRYFRMSDICSSKQAEWSSKTSYQRSMHAYQREKMKEEKRRSLEARREKLRQLMQEEQDLLARELEELRLSMNLQERRIREQHGKLKSAREEQRKLIAEQLLYEHWKKNNPKLREMELDLHQKHVVNSWEMQKEEKKQQEATAEQENKRYENEYERARREALERMKAEEERRQLEDKLQAEALLQQMEELKLKEVEATKLKKEQENLLKQRWELERLEEERKQMEAFRQKAELGRFLRHQYNAQLSRRTQQIQEELEADRRILQALLEKEDESQRLHLARREQVMADVAWMKQAIEEQLQLERAREAELQMLLREEAKEMWEKREAEWARERSARDRLMSEVLTGRQQQIQEKIEQNRRAQEESLKHREQLIRNLEEVRELARREKEESEKLKSARKQELEAQVAERRLQAWEADQQEEEEEEEARRVEQLSDALLQQEAETMAEQGYRPKPYGHPKIAWN [K127R],with no effect

# Variants of: B1
# Settings: with ndk7_human NME7, Q9Y5B8
# Sequence of ndk7_human NME7, Q9Y5B8 (Q9Y5B8 whole entry): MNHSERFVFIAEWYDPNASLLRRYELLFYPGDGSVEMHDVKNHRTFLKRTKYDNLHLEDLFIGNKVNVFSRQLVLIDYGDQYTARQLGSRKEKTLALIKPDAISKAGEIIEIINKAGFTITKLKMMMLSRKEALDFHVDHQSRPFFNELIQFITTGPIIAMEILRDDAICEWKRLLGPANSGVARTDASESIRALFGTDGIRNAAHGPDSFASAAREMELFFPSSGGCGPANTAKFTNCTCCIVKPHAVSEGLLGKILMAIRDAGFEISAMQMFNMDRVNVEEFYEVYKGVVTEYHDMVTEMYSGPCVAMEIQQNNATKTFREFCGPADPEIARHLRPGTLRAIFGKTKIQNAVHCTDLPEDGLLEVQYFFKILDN
row,Variant,effect of a mutation on the interaction
1,MALPTLPSYWCSQQRLNQQLARQREQEARLRQQWEQNSRYFRMSDICSSKQAEWSSKTSYQRSMHAYQREKMKEEKRRSLEARREKLRQLMQEEQDLLARELEELRLSMNLQERRIREQHGKLKSAREEQRKLIAEQLLYEHWKKNNPKLREMELDLHQKHVVNSWEMQKEEKKQQEATAEQENKRYENEYERARREALERMKAEEERRQLEDKLQAEALLQQMEELKLKEVEATKLKKEQENLLKQRWELERLEEERKQMEAFRQKAELGRFLRHQYNAQLSRRTQQIQEELEADRRILQALLEKEDESQRLHLARREQVMADVAWMKQAIEEQLQLERAREAELQMLLREEAKEMWEKREAEWARERSARDRLMSEVLTGRQQQIQEKIEQNRRAQEESLKHREQLIRNLEEVRELARREKEESEKLKSARKQELEAQVAERRLQAWEADQQEEEEEEEARRVEQLSDALLQQEAETMAEQGYRPKPYGHPKIAWN [K127R],with no effect

# Variants of: B2
# Settings: with leng1_human LENG1, Q96BZ8
row,Variant,effect of a mutation on the interaction
1,L12H,disrupting interaction strength

# Variants of: B3
# Settings: with SAP30BP
row,Variant,effect of a mutation on the interaction
1,S688L,with no effect
2,R8Q,with no effect

# Variants of: B4
# Settings: with amol2_human AMOTL2, Q9Y2J4
# Sequence of amol2_human AMOTL2, Q9Y2J4 (Q9Y2J4 whole entry): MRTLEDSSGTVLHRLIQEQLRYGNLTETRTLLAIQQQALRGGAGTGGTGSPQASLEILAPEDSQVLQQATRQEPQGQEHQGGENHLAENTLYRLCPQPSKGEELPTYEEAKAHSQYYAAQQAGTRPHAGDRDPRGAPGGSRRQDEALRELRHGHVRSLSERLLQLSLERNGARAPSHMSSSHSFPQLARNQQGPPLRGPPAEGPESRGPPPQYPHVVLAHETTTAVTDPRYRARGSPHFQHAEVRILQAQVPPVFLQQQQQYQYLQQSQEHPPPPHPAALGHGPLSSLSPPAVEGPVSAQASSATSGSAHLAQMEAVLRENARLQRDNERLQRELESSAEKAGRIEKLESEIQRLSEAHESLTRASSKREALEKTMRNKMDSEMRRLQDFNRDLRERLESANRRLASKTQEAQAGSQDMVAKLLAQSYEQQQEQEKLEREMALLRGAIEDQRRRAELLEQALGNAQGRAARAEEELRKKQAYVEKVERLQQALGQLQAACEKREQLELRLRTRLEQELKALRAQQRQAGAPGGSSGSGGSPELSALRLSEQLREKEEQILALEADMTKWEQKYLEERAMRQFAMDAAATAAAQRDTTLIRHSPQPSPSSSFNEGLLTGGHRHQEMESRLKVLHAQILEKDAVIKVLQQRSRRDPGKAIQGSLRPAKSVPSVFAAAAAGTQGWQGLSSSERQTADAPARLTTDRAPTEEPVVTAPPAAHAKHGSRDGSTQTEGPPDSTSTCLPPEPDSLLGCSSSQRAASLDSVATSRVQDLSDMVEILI
row,Variant,effect of a mutation on the interaction
1,E348D,with no effect
2,S55P,with no effect
3,A605P,with no effect

# Variants of: B4
# Settings: with txlna_human TXLNA
row,Variant,effect of a mutation on the interaction
1,E348D,with no effect
2,S55P,with no effect
3,A605P,with no effect

# Variants of: B4
# Settings: with atf4_human ATF4, P18848
# Sequence of atf4_human ATF4, P18848 (P18848 whole entry): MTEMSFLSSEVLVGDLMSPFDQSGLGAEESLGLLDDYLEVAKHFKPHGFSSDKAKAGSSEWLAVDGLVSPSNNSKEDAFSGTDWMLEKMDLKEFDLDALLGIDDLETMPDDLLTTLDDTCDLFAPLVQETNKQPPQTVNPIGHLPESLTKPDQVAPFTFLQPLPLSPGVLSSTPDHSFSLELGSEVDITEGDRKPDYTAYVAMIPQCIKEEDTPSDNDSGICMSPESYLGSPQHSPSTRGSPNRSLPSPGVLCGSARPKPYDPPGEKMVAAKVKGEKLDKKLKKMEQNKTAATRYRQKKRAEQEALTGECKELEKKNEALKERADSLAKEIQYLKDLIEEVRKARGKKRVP
row,Variant,effect of a mutation on the interaction
1,E348D,with no effect
2,S55P,with no effect
3,A605P,disrupting interaction strength

# Variants of: B4
# Settings: with tnip1_human TNIP1, Q15025
# Sequence of tnip1_human TNIP1, Q15025 (Q15025 whole entry): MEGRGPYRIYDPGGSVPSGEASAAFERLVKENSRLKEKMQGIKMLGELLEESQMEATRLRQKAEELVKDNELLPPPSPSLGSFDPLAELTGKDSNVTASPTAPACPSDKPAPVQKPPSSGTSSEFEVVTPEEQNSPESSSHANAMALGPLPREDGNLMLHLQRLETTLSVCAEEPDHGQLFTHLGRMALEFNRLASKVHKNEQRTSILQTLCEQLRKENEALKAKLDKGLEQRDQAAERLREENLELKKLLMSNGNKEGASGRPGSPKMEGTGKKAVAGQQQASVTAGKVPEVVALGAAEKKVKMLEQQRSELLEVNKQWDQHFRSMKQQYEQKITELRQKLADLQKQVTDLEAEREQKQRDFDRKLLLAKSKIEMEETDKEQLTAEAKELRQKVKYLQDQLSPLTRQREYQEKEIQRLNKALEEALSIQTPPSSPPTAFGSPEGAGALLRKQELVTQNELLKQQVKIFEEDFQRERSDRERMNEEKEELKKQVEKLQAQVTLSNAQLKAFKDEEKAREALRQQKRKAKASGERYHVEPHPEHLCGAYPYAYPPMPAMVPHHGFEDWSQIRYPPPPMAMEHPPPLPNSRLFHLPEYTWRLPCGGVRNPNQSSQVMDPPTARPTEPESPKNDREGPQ
row,Variant,effect of a mutation on the interaction
1,E348D,with no effect
2,S55P,with no effect
3,A605P,disrupting interaction strength
